We go through 1 protein from article PMC9765439, “Systems-Wide Dissection of Organic Acid Assimilation in Pseudomonas aeruginosa Reveals a Novel Path To Underground Metabolism” (mBio, 2022).

Experiment in all cases: purified protein
What all share (format): biochemical, Pseudomonas aeruginosa

Substrate in data set [1]: CC(=O)SCCNC(=O)CCNC(=O)[C@H](O)C(C)(C)COP(=O)(O)OP(=O)(O)OC[C@H]1O[C@@H](n2cnc3c(N)ncnc32)[C@H](O)[C@@H]1OP(=O)(O)O
As to conditions: 0.5 mM oxaloacetate, 50 mM HEPES pH 7.5, 0.1 M KCl, 0.54 M glycerol, 37 °C.

Substrate in data set [2]: CCC(=O)SCCNC(=O)CCNC(=O)[C@H](O)C(C)(C)COP(=O)(O)OP(=O)(O)OC[C@H]1O[C@@H](n2cnc3c(N)ncnc32)[C@H](O)[C@@H]1OP(=O)(O)O
As to conditions: 0.5 mM oxaloacetate, 50 mM HEPES pH 7.5, 0.1 M KCl, 0.54 M glycerol, 37 °C.

Substrate in data set [3]: O=C(O)CC(=O)C(=O)O
As to conditions: 0.5 mM propionyl-CoA, 50 mM HEPES pH 7.5, 0.1 M KCl, 0.54 M glycerol, 37 °C.

B1: PrpCPa (2-methylcitrate synthase, 2-MCS) (Pseudomonas aeruginosa PAO1) (protein)
chain: MAEAKVLSGAGLRGQVAGQTALSTVGQEGAGLTYRGYDVRDLAAAAIFEEVAYLLLYGELPNKQQLDAYLKKLQGQRDLPQALKEVLERIPKDAHPMDVMRTGASVLGTLEPELSFDQQRDVADRLLAAFPAIMTYWYRFTHEGQRIDCNSDEPTIGGHFLALLHGKKPSELHVKVMNVSLILYAEHEFNASTFTARVCASTLSDLYSCVTGAIGSLRGPLHGGANEAAMELIERFSSPQEATAELLKMLERKDKIMGFGHAIYKDSDPRNEVIKGWSKQLADEVGDKVLFAVSEAIDKTMWEQKKLFPNADFYHASAYHFMGIPTKLFTPIFVCSRTSGWTAHVFEQRANNRIIRPSAEYTGVEQRAFVPLEQR
notes: pET-19m, N-terminal TEV-cleavable His6 tag, cut; E. coli host; homodimer
Consider B1, for which the Km turned out to be 28 µM in “purified protein [1]”, 45 µM in “purified protein [2]” and 15.65 µM in the data set “purified protein [3]”. Also, the figures for the kcat/Km in the data set “purified protein [1]” and in the data set “purified protein [3]” were 114000 M⁻¹ s⁻¹ and 228000 M⁻¹ s⁻¹, respectively.
